Patent publication US20240132591A1
Like-named read-outs stand apart in the source and are kept apart here.

Key:
Experiment in all cases: ELISA on insulin-coated plate, 100 nM
[1] = biological target: Insulin (UniProt P01308)
[2] = biological target: Insulin (UniProt P01308); remark: listed apart in the source
[3] = biological target: Insulin (UniProt P01308); remark: listed apart in the source
[4] = biological target: Insulin (UniProt P01308); remark: listed apart in the source
[5] = biological target: Insulin (UniProt P01308); remark: listed apart in the source
[6] = biological target: Insulin (UniProt P01308); remark: listed apart in the source

Substance	Insulin polyreactivity score [1]	Insulin polyreactivity score [2]	Insulin polyreactivity score [3]	Insulin polyreactivity score [4]	Insulin polyreactivity score [5]	Insulin polyreactivity score [6]
Elotuzumab (antibody)	1.09	1.25	1.01	1	3.43	–
Lenzilumab (antibody)	7.93	21.3	7.87	1.52	69.2	69.2
